Results reported in patent publication US20220363770A1 (Amgen, published 2022).

Assays:
[1] = target: T1, human PAC1 receptor extracellular domain (ECD) (human, UniProt P41586 24-153); assay: yeast-displayed Fab, FACS, 10 nM PAC1 receptor ECD
T1 construct: also called PAC1 receptor ECD; PAC1 ECD
T1 sequence: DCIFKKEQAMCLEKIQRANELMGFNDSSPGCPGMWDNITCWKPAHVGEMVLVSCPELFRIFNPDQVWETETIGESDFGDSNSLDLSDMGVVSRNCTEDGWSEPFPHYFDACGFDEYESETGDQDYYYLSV

[2] = target: T2, human CGRP receptor extracellular domain (ECD) (human, UniProt Q16602 23-138; O60894 27-117); assay: yeast-displayed Fab, FACS, 1 nM human CGRP receptor ECD
T2 construct: also called CGRP receptor ECD; human CGRP receptor ECD
T2 sequence (Q16602 23-138 limits assumed, chain 1 of 2): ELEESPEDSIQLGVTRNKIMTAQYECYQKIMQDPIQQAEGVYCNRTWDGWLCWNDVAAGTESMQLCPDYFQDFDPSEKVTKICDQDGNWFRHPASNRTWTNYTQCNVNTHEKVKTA
T2 sequence (O60894 27-117 limits assumed, chain 2 of 2): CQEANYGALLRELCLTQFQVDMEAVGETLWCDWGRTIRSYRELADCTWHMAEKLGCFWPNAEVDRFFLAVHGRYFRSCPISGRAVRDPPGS

[3] = target: T2, human CGRP receptor extracellular …; assay: yeast-displayed Fab, FACS, 10 nM human CGRP receptor ECD
[4] = target: T3, cynomolgus monkey CGRP receptor (cynomolgus monkey, UniProt A0A2K5VQ71 34-472); assay: yeast-displayed Fab, FACS, detergent-solubilized lysate of cynomolgus CGRP receptor/HEK cells vs blank cells
T3 construct: whole, on cells; Presented as detergent-solubilized lysate of HEK cells expressing the cynomolgus receptor; also called Cyno CGRP Receptor; Cynomolgus Monkey CGRP Receptor/HEK detergent-solubilized cell lysate
T3 sequence (A0A2K5VQ71 entry or part of it): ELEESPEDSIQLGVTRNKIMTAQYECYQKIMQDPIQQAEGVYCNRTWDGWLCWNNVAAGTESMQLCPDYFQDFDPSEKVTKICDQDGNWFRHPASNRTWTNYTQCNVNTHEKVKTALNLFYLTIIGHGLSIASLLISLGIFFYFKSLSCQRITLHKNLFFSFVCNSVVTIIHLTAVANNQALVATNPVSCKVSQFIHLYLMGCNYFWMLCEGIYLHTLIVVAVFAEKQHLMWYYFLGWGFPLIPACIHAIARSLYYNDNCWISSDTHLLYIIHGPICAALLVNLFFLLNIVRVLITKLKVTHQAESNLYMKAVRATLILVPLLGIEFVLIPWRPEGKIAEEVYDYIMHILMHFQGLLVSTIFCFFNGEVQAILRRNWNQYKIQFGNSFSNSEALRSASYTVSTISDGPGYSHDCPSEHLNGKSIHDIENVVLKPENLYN

[5] = target: T4, human CGRP receptor (human CRLR / human RAMP1 heterodimer) (human, UniProt Q16602 23-461; O60894 27-148); assay: yeast-displayed Fab, FACS, detergent-solubilized lysate of human CGRP receptor-expressing cells vs blank cells
T4 construct: Full-length receptor: endogenous on SK-N-MC (HTB-10) cells in the cAMP assay; also called hCGRP receptor on SK-N-MC (HTB-10) cells; Human CGRP Receptor/AMID detergent-solubilized cell lysate
T4 sequence (Q16602 23-461 limits assumed, chain 1 of 2): as the sequence (A0A2K5VQ71 entry or part of it) above, with N55D, V431L counted along it
T4 sequence (O60894 27-148 limits assumed, chain 2 of 2): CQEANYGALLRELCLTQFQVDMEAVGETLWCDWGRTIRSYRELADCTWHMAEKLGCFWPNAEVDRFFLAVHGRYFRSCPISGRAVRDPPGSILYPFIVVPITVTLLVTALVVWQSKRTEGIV

[6] = target: T5, soluble CGRP receptor (extracellular domains of human CRLR and human RAMP1) (human, UniProt Q16602 23-133; O60894 26-117); assay: SPR (Biacore T200), antibody captured by goat anti-human Fc, soluble CGRP receptor as analyte, 1:1 model
T5 construct: the tag and the thrombin site are not described; also called soluble human CGRP receptor; CGRP receptor ECD
T5 sequence (Q16602 23-133, chain 1 of 2): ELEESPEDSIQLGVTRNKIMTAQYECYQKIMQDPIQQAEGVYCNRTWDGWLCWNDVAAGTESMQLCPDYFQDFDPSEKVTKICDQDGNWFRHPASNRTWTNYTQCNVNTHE
T5 sequence (O60894 26-117, chain 2 of 2): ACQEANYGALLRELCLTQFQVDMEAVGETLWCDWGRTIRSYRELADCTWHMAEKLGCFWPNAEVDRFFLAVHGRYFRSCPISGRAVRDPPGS

Binder	Mutant vs. 4E4.2 Parent B/D Ratio [1]	Normalized Binding Signal/Display Signal (B/D) [1]	Mutant vs. 4E4.2 Parent B/D Ratio [2]	Normalized Binding Signal/Display Signal (B/D) [2]	Mutant vs. 4E4.2 Parent B/D Ratio [3]	Normalized Binding Signal/Display Signal (B/D) [3]	Cyno CGRP Receptor/Blank Cells Specific Binding [4]	Mutant vs. 4E4.2 Parent Specific Binding Ratio [4]	Human CGRP Receptor/Blank Cells Specific Binding [5]	Mutant vs. 4E4.2 Parent Specific Binding Ratio [5]	Kd [6]	koff [6]	kon [6]
anti-CGRP receptor variant 14, yeast-displayed Fab (Fab, V domains shown, also called Variant Ab ID 14) VH: QVQLVESGGGVVQPGRSLRLSCAASGFTFSSFGMHWVRQAPGKGLEWVAVISFDGSIKYSVDSVKGRFTISRDNSKNTLFLQMNSLRAEDTAVYYCARDRLNYYESSGYYHYKYYGMAVWGQGTTVTVSS VL: QSVLTQPPSVSAAPGQKVTISCSGSSSNIGNNYVSWYQQLPGTAPKLLIYDNNKRPSGIPDRFSGSKSGTSATLGITGLQTGDEADYYCGTWDSWHRVVTFGGGTKLTVLG	0.7 fold	0.08 ratio	1 fold	0.12 ratio	2.2 fold	0.33 ratio	2.2 ratio	1.1 fold	13.5 ratio	1.7 fold	–	–	–
4E4 heavy chain D54A single-point alanine variant antibody (antibody, V domains shown, Recombinantly expressed as a monoclonal antibody) VH: QVQLVESGGGVVQPGRSLRLSCAASGFTFSSFGMHWVRQAPGKGLEWVAVISFAGSIKYSVDSVKGRFTISRDNSKNTLFLQMNSLRAEDTAVYYCARDRLNYYDSSGYYHYKYYGMAVWGQGTTVTVSS VL: QSVLTQPPSVSAAPGQKVTISCSGSSSNIGNNYVSWYQQLPGTAPKLLIYDNNKRPSGIPDRFSGSKSGTSTTLGITGLQTGDEADYYCGTWDSRLSAVVFGGGTKLTVLG	–	–	–	–	–	–	–	–	–	–	180 nM	0.0026 s⁻¹	15000 M⁻¹ s⁻¹
wild-type 4E4 anti-CGRP receptor monoclonal antibody (antibody, human IgG2, lambda, V domains shown, also called WT; 4E4 Ab) VH: QVQLVESGGGVVQPGRSLRLSCAASGFTFSSFGMHWVRQAPGKGLEWVAVISFDGSIKYSVDSVKGRFTISRDNSKNTLFLQMNSLRAEDTAVYYCARDRLNYYDSSGYYHYKYYGMAVWGQGTTVTVSS VL: QSVLTQPPSVSAAPGQKVTISCSGSSSNIGNNYVSWYQQLPGTAPKLLIYDNNKRPSGIPDRFSGSKSGTSTTLGITGLQTGDEADYYCGTWDSRLSAVVFGGGTKLTVLG	–	–	–	–	–	–	–	–	–	–	28 nM	0.00054 s⁻¹	20000 M⁻¹ s⁻¹
4E4 light chain Y33A single-point alanine variant antibody (antibody, V domains shown, Recombinantly expressed as a monoclonal antibody; also called L-Y33A) VH: QVQLVESGGGVVQPGRSLRLSCAASGFTFSSFGMHWVRQAPGKGLEWVAVISFDGSIKYSVDSVKGRFTISRDNSKNTLFLQMNSLRAEDTAVYYCARDRLNYYDSSGYYHYKYYGMAVWGQGTTVTVSS VL: QSVLTQPPSVSAAPGQKVTISCSGSSSNIGNNAVSWYQQLPGTAPKLLIYDNNKRPSGIPDRFSGSKSGTSTTLGITGLQTGDEADYYCGTWDSRLSAVVFGGGTKLTVLG	–	–	–	–	–	–	–	–	–	–	11 nM	0.00027 s⁻¹	24000 M⁻¹ s⁻¹
4E4 light chain K67A single-point alanine variant antibody (antibody, V domains shown, Recombinantly expressed as a monoclonal antibody) VH: QVQLVESGGGVVQPGRSLRLSCAASGFTFSSFGMHWVRQAPGKGLEWVAVISFDGSIKYSVDSVKGRFTISRDNSKNTLFLQMNSLRAEDTAVYYCARDRLNYYDSSGYYHYKYYGMAVWGQGTTVTVSS VL: QSVLTQPPSVSAAPGQKVTISCSGSSSNIGNNYVSWYQQLPGTAPKLLIYDNNKRPSGIPDRFSGSASGTSTTLGITGLQTGDEADYYCGTWDSRLSAVVFGGGTKLTVLG	–	–	–	–	–	–	–	–	–	–	29 nM	0.00046 s⁻¹	16000 M⁻¹ s⁻¹
4E4 heavy chain K113A single-point alanine variant antibody (antibody, V domains shown, Recombinantly expressed as a monoclonal antibody) VH: QVQLVESGGGVVQPGRSLRLSCAASGFTFSSFGMHWVRQAPGKGLEWVAVISFDGSIKYSVDSVKGRFTISRDNSKNTLFLQMNSLRAEDTAVYYCARDRLNYYDSSGYYHYAYYGMAVWGQGTTVTVSS VL: QSVLTQPPSVSAAPGQKVTISCSGSSSNIGNNYVSWYQQLPGTAPKLLIYDNNKRPSGIPDRFSGSKSGTSTTLGITGLQTGDEADYYCGTWDSRLSAVVFGGGTKLTVLG	–	–	–	–	–	–	–	–	–	–	33 nM	0.0006 s⁻¹	18000 M⁻¹ s⁻¹
4E4 light chain R95A single-point alanine variant antibody (antibody, V domains shown, Recombinantly expressed as a monoclonal antibody) VH: QVQLVESGGGVVQPGRSLRLSCAASGFTFSSFGMHWVRQAPGKGLEWVAVISFDGSIKYSVDSVKGRFTISRDNSKNTLFLQMNSLRAEDTAVYYCARDRLNYYDSSGYYHYKYYGMAVWGQGTTVTVSS VL: QSVLTQPPSVSAAPGQKVTISCSGSSSNIGNNYVSWYQQLPGTAPKLLIYDNNKRPSGIPDRFSGSKSGTSTTLGITGLQTGDEADYYCGTWDSALSAVVFGGGTKLTVLG	–	–	–	–	–	–	–	–	–	–	43 nM	0.00077 s⁻¹	18000 M⁻¹ s⁻¹
anti-CGRP receptor variant 15, yeast-displayed Fab (Fab, V domains shown, also called Variant Ab ID 15) VH: QVQLVESGGGVVQPGRSLRLSCAASGFTFSSFGMHWVRQAPGKGLEWVAVISFDGSIKYSVDSVKGRFTISRDNSKNTLFLQMNSLRAEDTAVYYCARDRLNYYESSGYYHYKYYGMAVWGQGTTVTVSS VL: QSVLTQPPSVSAAPGQKVTISCSGSSSNIGNNYVSWYQQLPGTAPKLLIYDNNKRPSGIPDRFSGSKSGTSATLGITGLQTGDEADYYCGTWDWWRKAVIFGGGTKLTVLG	0.9 fold	0.1 ratio	1.3 fold	0.16 ratio	2.7 fold	0.42 ratio	4.2 ratio	2.2 fold	11.9 ratio	1.5 fold	–	–	–
anti-CGRP receptor variant 11, yeast-displayed Fab (Fab, V domains shown, also called Variant Ab ID 11) VH: QVQLVESGGGVVQPGRSLRLSCAASGFWFDTFGMHWVRQAPGKGLEWVAVISFAGEDTHYVDSVKGRFTISRDNSKNTLFLQMNSLRAEDTAVYYCARDRLNYYESYGYYGYHYYGMAVWGQGTTVTVSS VL: QSVLTQPPSVSAAPGQKVTISCSGSRSNIGRYSVSWYQQLPGTAPKLLIYENMFRPRGIPDRFSGSKSGTSATLGITGLQTGDEADYYCGTWDYRMQAVVFGGGTKLTVLG	1.5 fold	0.16 ratio	11 fold	1.36 ratio	22 fold	3.38 ratio	5.3 ratio	2.8 fold	9.5 ratio	1.2 fold	–	–	–
